{"source": "paper PMC9917816", "about": "“STS1 and STS2 Phosphatase Inhibitor Baicalein Enhances the Expansion of Hematopoietic and Progenitor Stem Cells and Alleviates 5-Fluorouracil-Induced Myelosuppression” (International Journal of Molecular Sciences, 2023)", "substrate": "O=[N+]([O-])c1ccc(OP(=O)(O)O)cc1", "experiment": "purified protein", "type": "biochemical, Homo sapiens", "conditions": "25 mM HEPES, 50 mM NaCl, 5 mM DTT, 2.5 mM EDTA, pH 7.2, 25 °C", "key": {"[1]": {"conditions": "20 min, text (b9) says STS2 has lower Km than STS1, against the table"}}, "data": [{"protein": "STS1-HP (STS1 histidine phosphatase domain) (Homo sapiens) (protein) GPQKRCLFVCRHGERMDVVFGKYWLSQCFDAKGRYIRTNLNMPHSLPQRSGGFRDYEKDAPITVFGCMQARLVGEALLESNTIIDHVYCSPSLRCVQTAHNILKGLQQENHLKIRVEPGLFEWTKWVAGSTLPAWIPPSELAAANLSVDTTYRPHIPISKLVVSESYDTYISRSFQVTKEIISECKSKGNNILIVAHASSLEACTCQLQGLSPQNSKDFVQMVRKIPYLGFCSCEELGETGIWQLTDPPILPLTHGPTGGFNWRETLLQE", "values": [{"measurement": "Km", "setting": "10 min", "result": "3.52 ± 0.44", "unit": "mM"}, {"measurement": "kcat", "setting": "10 min", "result": "67.7 ± 1.31", "unit": "s⁻¹"}, {"measurement": "kcat/Km", "setting": "10 min", "result": "19500 ± 2100", "unit": "M⁻¹ s⁻¹"}]}, {"protein": "STS2-HP (STS2 histidine phosphatase domain) (Homo sapiens) (protein) SLQALQATVARKSVLVVRHGERVDQIFGKAWLQQCSTPDGKYYRPDLNFPCSLPRRSRGIKDFENDPPLSSCGIFQSRIAGDALLDSGIRISSVFASPALRCVQTAKLILEELKLEKKIKIRVEPGIFEWTKWEAGKTTPTLMSLEELKEANFNIDTDYRPAFPLSALMPAESYQEYMDRCTASMVQIVNTCPQDTGVILIVSHGSTLDSCTRPLLGLPPRECGDFAQLVRKIPSLGMCFCEENKEEGKWELVNPPVKTLTHGANAAFNWRNWISGN", "values": [{"measurement": "Km", "setting": "[1]", "result": "5.39 ± 0.52", "unit": "mM"}, {"measurement": "kcat", "setting": "[1]", "result": "0.27 ± 0.005", "unit": "s⁻¹"}, {"measurement": "kcat/Km", "setting": "[1]", "result": "50.5 ± 4.51", "unit": "M⁻¹ s⁻¹"}]}]}
